Target: S1P3 receptor (UniProt Q99500)
Sequence (Q99500 whole entry): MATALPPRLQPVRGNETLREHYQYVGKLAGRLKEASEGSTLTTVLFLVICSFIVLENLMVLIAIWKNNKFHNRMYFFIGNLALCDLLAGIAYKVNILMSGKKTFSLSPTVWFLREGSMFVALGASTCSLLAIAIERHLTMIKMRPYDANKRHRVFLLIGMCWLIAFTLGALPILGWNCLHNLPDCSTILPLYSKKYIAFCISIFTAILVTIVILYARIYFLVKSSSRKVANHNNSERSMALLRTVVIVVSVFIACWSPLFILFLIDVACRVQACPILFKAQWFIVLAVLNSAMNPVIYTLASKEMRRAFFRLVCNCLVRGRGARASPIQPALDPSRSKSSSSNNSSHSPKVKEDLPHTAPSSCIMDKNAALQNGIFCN

In the case of recombinant active Src, the “in vitro tyrosine phosphorylation of isolated S1P3 receptor (immunoblot)” value is reported as “Src tyrosine phosphorylation of the S1P3 receptor”.

— US20080194611
